Test results taken from patent US20140302123A1 (INSTITUT PASTEUR, published 2014).

What was measured:
Cyto13-vir [1] = target: T1, Cyto13-vir (rabies virus (CVS-NIV RABV strain)); test: NMR titration (rounded value in the text)
Cyto13-vir [2] = target: T1, Cyto13-vir; test: NMR titration, 15N-labeled PTPN4-PDZ with unlabeled peptide
DARL-13 = DARL-13 (rabies virus (vampire bat RABV strain)); test: as above

B1: PTPN4-PDZ (residues G499-N604) (other)
chain: GSPEKPTPNGGIPHDNLVLIRMKPDENGRFGFNVKGGYDQKMPVIVSRVAPGTPADLCVPRLNEGDQVVLINGRDIAEHTHDQVVLFIKASCERHSGELMLLVRPN
notes: range 500-604; also called PDZ of PTPN4; PTPN4 PDZ domain
- Kd (Cyto13-vir [1]): 560 µM
- Kd (Cyto13-vir [2]): 568 µM
- Kd (DARL-13): 1280 µM
